The chains are these.
B1: SKA complex subunit 1 (Homo sapiens), Q96BD8 (parent)
chain: MASSDLEQLCSHVNEKIGNIKKTLSLRNCGQEPTLKTVLNKIGDEIIVINELLNKLELEIQYQEQTNNSLKELCESLEEDYKDIEHLKENVPSHLPQVTVTQSCVKGSDLDPEEPIKVEEPEPVKKPPKEQRSIKEMPFITCDEFNGVPSYMKSRLTYNQINDVIKEINKAVISKYKILHQPKKSMNSVTRNLYHRFIDEETKDTKGRYFIVEADIKEFTTLKADKKFHVLLNILRHCRRLSEVRGGGLTRYVIT
partner: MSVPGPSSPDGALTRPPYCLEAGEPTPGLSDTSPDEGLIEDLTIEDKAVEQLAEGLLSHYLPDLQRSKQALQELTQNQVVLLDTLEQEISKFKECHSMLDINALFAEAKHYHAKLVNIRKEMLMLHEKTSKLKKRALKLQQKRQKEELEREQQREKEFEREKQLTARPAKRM
B2: Rho guanine nucleotide exchange factor 3 (Homo sapiens), Q9NR81 (parent)
chain: MVAKDYPFYLTVKRANCSLELPPASGPAKDAEEPSNKRVKPLSRVTSLANLIPPVKATPLKRFSQTLQRSISFRSESRPDILAPRPWSRNAAPSSTKRRDSKLWSETFDVCVNQMLTSKEIKRQEAIFELSQGEEDLIEDLKLAKKAYHDPMLKLSIMTEQELNQIFGTLDSLIPLHEELLSQLRDVRKPDGSTEHVGPILVGWLPCLSSYDSYCSNQVAAKALLDHKKQDHRVQDFLQRCLESPFSRKLDLWNFLDIPRSRLVKYPLLLREILRHTPNDNPDQQHLEEAINIIQGIVAEINTKTGESECRYYKERLLYLEEGQKDSLIDSSRVLCCHGELKNNRGVKLHVFLFQEVLVITRAVTHNEQLCYQLYRQPIPVKDLLLEDLQDGEVRLGGSLRGAFSNNERIKNFFRVSFKNGSQSQTHSLQANDTFNKQQWLNCIRQAKETVLCAAGQAGVLDSEGSFLNPTTGSRELQGETKLEQMDQSDSESDCSMDTSEVSLDCERMEQTDSSCGNSRHGESNV
partner: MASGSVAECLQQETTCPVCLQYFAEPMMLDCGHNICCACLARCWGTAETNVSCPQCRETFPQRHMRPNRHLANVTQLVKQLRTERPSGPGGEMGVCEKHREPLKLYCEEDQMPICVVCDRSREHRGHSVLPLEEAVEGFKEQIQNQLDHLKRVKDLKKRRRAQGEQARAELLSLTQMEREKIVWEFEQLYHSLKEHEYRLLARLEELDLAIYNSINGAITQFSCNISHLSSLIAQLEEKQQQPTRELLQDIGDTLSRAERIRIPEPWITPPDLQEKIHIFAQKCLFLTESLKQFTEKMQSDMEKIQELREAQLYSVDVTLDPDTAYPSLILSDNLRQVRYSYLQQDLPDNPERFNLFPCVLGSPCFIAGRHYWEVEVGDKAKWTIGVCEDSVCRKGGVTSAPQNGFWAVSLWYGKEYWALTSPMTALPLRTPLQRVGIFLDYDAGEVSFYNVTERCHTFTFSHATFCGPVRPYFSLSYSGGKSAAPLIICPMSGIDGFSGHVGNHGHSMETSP
B3: E3 ubiquitin-protein ligase MARCHF5 (Homo sapiens), Q9NX47 (parent)
chain: MPDQALQQMLDRSCWVCFATDEDDRTAEWVRPCRCRGSTKWVHQACLQRWVDEKQRGNSTARVACPQCNAEYLIVFPKLGPVVYVLDLADRLISKACPFAAAGIMVGSIYWTAVTYGAVTVMQVVGHKEGLDVMERADPLFLLIGLPTIPVMLILGKMIRWEDYVLRLWRKYSNKLQILNSIFPGIGCPVPRIPAEANPLADHVSATRILCGALVFPTIATIVGKLMFSSVNSNLQRTILGGIAFVAIKGAFKVYFKQQQYLRQAHRKILNYPEQEEA
partner: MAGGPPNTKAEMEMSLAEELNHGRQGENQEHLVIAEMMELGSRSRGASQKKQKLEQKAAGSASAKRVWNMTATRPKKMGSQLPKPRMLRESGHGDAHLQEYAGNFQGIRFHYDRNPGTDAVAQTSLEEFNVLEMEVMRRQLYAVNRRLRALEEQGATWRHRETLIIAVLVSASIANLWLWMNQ
B4: Germ cell-less protein-like 1 (Homo sapiens), Q96IK5 (parent)
chain: MGSLSSRVLRQPRPALAQQAQGARAGGSARRPDTGDDAAGHGFCYCAGSHKRKRSSGSFCYCHPDSETDEDEEEGDEQQRLLNTPRRKKLKSTSKYIYQTLFLNGENSDIKICALGEEWSLHKIYLCQSGYFSSMFSGSWKESSMNIIELEIPDQNIDVEALQVAFGSLYRDDVLIKPSRVVAILAAACLLQLDGLIQQCGETMKETVNVKTVCGYYTSAGTYGLDSVKKKCLEWLLNNLMTHQNVELFKELSINVMKQLIGSSNLFVMQVEMDIYTALKKWMFLQLVPSWNGSLKQLLTETDVWFSKQRKDFEGMAFLETEQGKPFVSVFRHLRLQYIISDLASARIIEQDAVVPSEWLSSVYKQQWFAMLRAEQDSEVGPQEINKEELEGNSMRCGRKLAKDGEYCWRWTGFNFGFDLLVTYTNRYIIFKRNTLNQPCSGSVSLQPRRSIAFRLRLASFDSSGKLICSRTTGYQILTLEKDQEQVVMNLDSRLLIFPLYICCNFLYISPEKKN
partner: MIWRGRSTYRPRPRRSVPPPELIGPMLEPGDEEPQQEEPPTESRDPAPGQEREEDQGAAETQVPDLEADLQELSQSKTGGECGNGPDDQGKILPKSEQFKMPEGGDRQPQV

In one experiment the parent is B1. Conditions: with bl1s6_human BLOC1S6, Q9UL45.
For V230M, the “effect of a mutation on the interaction” value is “with no effect”.
Turning to H86R, the “effect of a mutation on the interaction” value is given as “with no effect”.

The variants in another experiment derive from B2. As to conditions: with tri27_human TRIM27, P14373.
N432S: the “effect of a mutation on the interaction” value is “with no effect”.

In a further experiment the parent is B3. Conditions: with fate1_human FATE1, Q969F0.
Turning to D202N, the “effect of a mutation on the interaction” value was “with no effect”.

Variants of B4 are the subject of another experiment. As to conditions: with xage3_human XAGE3, Q8WTP9.
As to E77K, the “effect of a mutation on the interaction” value is “with no effect”.
With R457H, the “effect of a mutation on the interaction” value is recorded as “with no effect”.
On the same count and under the same terms, then I147V, with “with no effect”; and K281Q, with “with no effect”.
In the case of Y61S, the “effect of a mutation on the interaction” value is on record as “with no effect”.
Still for that read-out and setting: then K123R, with “with no effect”; and R449Q, with “with no effect”.

(Values after IntAct's records for PubMed 31515488.)
